According to patent publication US20220242963A1, “B-CELL ACTIVATING CD73 ANTIBODIES” (CORVUS PHARMACEUTICALS, INC., priority 2018, published 2022):

How the values were obtained:
B cells (CD19+CD3−) = experiment: B cell activation in healthy donor PBMC, flow cytometry of surface markers / phospho ERK; format: cell-based, human
Excerpt: With reference to FIGS. 2A-2E, each group of four bars from left to right represent data for: untreated donors, donors treated with human IgG1 isotype control, donors treated with BCR stimulation, and donors treated with CPI-006. The experiments for FIGS. 2A-2E are based on healthy donor PBMC treated overnight with flow cytometry analysis of surface markers on B cells (CD19^POS CD3^NEG). These lymphocyte markers are consistent with activation of B cells as well as other antigen presenting cell populations. […] The bar graph legend from top to bottom is representative of the data bars from left to right. […] For FIG. 2H the bar graph legend from top to bottom is representative of the data bars from left to right. For FIG. 2I the legend from top to bottom is representative of the data from top to bottom. […] For each group of four bars, the legend from top to bottom are representative of the bars from left to right.
PBMC were isolated from healthy donors and incubated with bead-bound anti-IgM, CPI-006 (10 μg/mL), or human IgG1 isotype control (10 μg/mL) overnight. Flow cytometry analysis was performed with gating on B cells (CD19+CD3−) and mean fluorescence intensity (MFI) was reported for staining with antibodies to the cell surface markers CD69, CD83, and CD25, as shown in FIGS. 2A-2C. PBMC were isolated from healthy donors and incubated with CPI-006, CPI-016, human IgG1 isotype control, and anti-human CD73 antibody, clone AD2 (available from Bio-Rad Antibodies) over a range of concentrations from about 0.1 μg/mL to more than 10 μg/mL. Flow cytometry analysis was performed with gating on B cells (CD19+CD3−) and mean fluorescence intensity (MFI) is reported for antibody staining of CD69, as shown in FIG. 2F. PBMC were isolated from healthy donors and incubated overnight with bead-bound anti-IgM or CPI-006 (1 μg/mL)+/−BTK inhibitor, ibrutinib (100 nM). Flow cytometry analysis was performed with gating on B cells (CD19+CD3−) and mean fluorescence intensity (MFI) is reported for antibody staining of CD69 and CD83, as shown in FIG. 2G. PBMC were isolated from healthy donors and incubated overnight with APCP (1 μM) or CPI-006 (1 μg/mL)+/−NECA (5′-N-ethylcarboxamidoadenosine). Flow cytometry analysis was performed with gating on B cells (CD19+CD3−) and mean fluorescence intensity (MFI) is reported for antibody staining of CD69, as shown in FIGS. 2H-2I. PBMC were isolated from healthy donors and incubated with the indicated treatments for 15 minutes. Flow cytometry analysis was performed with gating on the indicated cell populations and staining of phospho ERK was evaluated, as shown in FIG. 2J.

CD73 = biological target: T1, CD73 (Homo sapiens, UniProt P21589); experiment: CD73 catalytic activity in MDA-MB-231 cells (phosphate, Sensolyte Malachite Green); format: cell-based; settings: 250 μM AMP, FIG. 1B
T1 construct: endogenous in cells; host or cells: Whole blood of cancer patients (CD73+ CD8 T cells)
T1 sequence (P21589 27-549): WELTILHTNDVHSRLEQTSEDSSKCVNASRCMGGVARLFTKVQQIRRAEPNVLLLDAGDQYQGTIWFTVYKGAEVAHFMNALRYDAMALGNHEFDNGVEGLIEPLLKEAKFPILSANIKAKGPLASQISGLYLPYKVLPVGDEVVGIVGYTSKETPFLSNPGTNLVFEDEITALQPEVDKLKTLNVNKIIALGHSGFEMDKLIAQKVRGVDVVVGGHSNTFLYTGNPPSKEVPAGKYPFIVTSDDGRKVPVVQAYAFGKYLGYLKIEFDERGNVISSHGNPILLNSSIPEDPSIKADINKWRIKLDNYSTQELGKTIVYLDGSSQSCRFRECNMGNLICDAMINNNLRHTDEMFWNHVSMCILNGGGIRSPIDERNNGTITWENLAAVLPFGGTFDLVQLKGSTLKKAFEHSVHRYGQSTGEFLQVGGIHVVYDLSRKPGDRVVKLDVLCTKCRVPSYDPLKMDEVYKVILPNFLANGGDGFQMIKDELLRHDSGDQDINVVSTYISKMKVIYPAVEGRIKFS
Description: FIG. 1A provides a schematic of CD73 structure. […] Each symbol represents an independent donor.
MDA-MB-231 cells (e.g., available at ATCC® as HTB-26™) were incubated with a human IgG1 isotype control, CPI-006, CPX-016, or adenosine 5′-(α,β-methylene)diphosphate (also known as APCP, which is a small molecule inhibitor of CD73 enzymatic activity), prior to addition of 250 μM of adenosine monophosphate (AMP). Phosphate levels were measured in the cell culture supernatant using the Sensolyte Malachite Green assay kit. Peripheral blood mononuclear cells (PBMC) were isolated from healthy donors and labeled with CellTrace™ Violet (ThermoFisher Scientific) prior to culture with 1 μg/mL anti-CD3 and anti-CD28, 200 units/mL IL-2, 3 mM AMP and indicated treatments (CPI-006 at 500 nM; CPX-016 at 500 nM; human IgG1 isotype control at 890 nM). T cell proliferation was measured by Cell Trace Violet dilution and was defined by gating relative to unstimulated PBMC (FIG. 1C). IFN-gamma production was measured in cell culture supernatants by AlphaLISA (FIG. 1D). Results shown in FIGS. 1B-D illustrate that inhibition of CD73 activity has an agonistic effect on immunomodulatory activity.

inflammatory cytokines = experiment: Phase 1/1B clinical trial: serum cytokine levels; format: in vivo, human; settings: patients following treatment
Description: Immunomodulatory activity of CPI-006 was evaluated in patients administered CPI-006. […] Further, T cell activation was evaluated upon treatment with various dosages of the monotherapy CPI-006 or a combination therapy of CPI-006 and ciforadenant. Once a T cell clone is activated, the clone can expand and produce clonal copies of the original clone. […] The results further affirm CPI-006 is an immunomodulator of CD73 positive cells.

B1: CPI-006: humanized CD73 antibody, wherein the light chain is SEQ ID NO:8 and the heavy chain is SEQ ID NO:7; IgG1 Fcγ receptor-deficient (antibody, V domains shown)
VH: QVQLVQSGAEVEKPGASVKVSCKASGYTFTSYWITWVRQAPGQGLEWMGDIYPGSGNTNYNEKFKTRVTITADKSTSTAYMELSSLRSEDTAVYYCAKEGGLTTEDYALDYWGQGTLVTV
VL: EIVLTQSPATLSLSPGERATLSCRASKNVSTSGYSYMHWYQQKPGQAPRLLIYLASNLESGIPPRFSGSGYGTDFTLTINNIESEDAAYYFCQHSRELPFTFGQGTKVEIK
In the case of B1, the “B cell activation (CD69, CD83) +/− NECA, versus APCP” value (B cells (CD19+CD3−); CPI-006 1 μg/mL, APCP 1 μM, overnight, FIGS. 2H-2I) is reported as “independent of adenosine”, the “B cell activation (CD69, CD83) +/− BTK inhibitor ibrutinib” value (B cells (CD19+CD3−); CPI-006 1 μg/mL, ibrutinib 100 nM, overnight, FIG. 2G) is reported as “via BTK” and the “expression of B cell activation marker CD69” value (B cells (CD19+CD3−); PBMC overnight, CPI-006 10 μg/mL, gated on B cells, FIG. 2A) is reported as “induces expression”. The “expression of B cell activation marker CD83” value (B cells (CD19+CD3−); PBMC overnight, CPI-006 10 μg/mL, gated on B cells, FIG. 2B) was “induces expression”, the “expression of B cell activation marker CD25” value (B cells (CD19+CD3−); PBMC overnight, CPI-006 10 μg/mL, gated on B cells, FIG. 2C) was “induces expression” and the “antigen-presenting cell marker CD86” value (B cells (CD19+CD3−); PBMC overnight, gated on B cells, FIG. 2D) was “activates”. The “antigen-presenting cell marker MHC-II” value (B cells (CD19+CD3−); PBMC overnight, gated on B cells, FIG. 2E) was “activates”, the “phospho-ERK signaling in B cells versus T cells” value (B cells (CD19+CD3−); PBMC, 15 minutes, FIG. 2J) was “to a greater extent than in CD4+ T cells or CD8+ T cells” and the “induction of B cell activation (CD69 MFI) compared with other antibodies” value (B cells (CD19+CD3−); about 0.1 μg/mL to more than 10 μg/mL, versus CPI-016, isotype control, AD2, FIG. 2F) was “unique to CPI-006”. The “direct B cell activation” value (B cells (CD19+CD3−); human B lymphocytes) was “directly activates human B lymphocytes”, the “adenosine production (CD73 catalytic activity)” value (CD73) was “blocks adenosine production” and the “cytokines including TNF-α, TNF-β, MIP-1α, MIP-1β, IL-6, IL-10, IL-8, IP-10, MCP-1, MCP-2, IL-1Ra, GRO-α, MIP-3α, TNF-RII, IL-7, MMP-9” value (inflammatory cytokines; FIG. 8A) was “rapid induction”. For the same molecule, the “levels of CRP and SAA” value (inflammatory cytokines; FIG. 8B) was “subsequent increase”.
